The values below come from patent US20090099029A1, “Methods and substrates for conducting assays” (Invitrogen Corporation, priority 2005, published 2009).

For this series, the system named is kinases of Table 6 on Myelin Basic Protein (MBP). Put plainly: Kinase assay using MBP substrate, ProQ Diamond stain (Table 6). The conditions noted are these: kinase printed on MBP-coated slide; 20 uM ATP, 30° C.; ProQ Diamond Microarray Stain; graded Strong/Weak/Negative. Type of series: biochemical. In a few lines: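 Reactions ran at 30° C. with 20 uM ATP, 4 mM MgCl2 and 5% DMSO in HEPES pH 7.5, inhibitor added or omitted. Kinases had been arrayed onto slide-bound dephosphorylated bovine MBP; phospho-signal read after ProQ Diamond staining.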

B1: IGF1R (protein)
chain: RKRNNSRLGNGVLYASVNPEYFSAADVYVPDEWEVAREKITMSRELGQGSFGMVYEGVAKGVVKDEPETRVAIKTVNEAASMRERIEFLNEASVMKEFNCHHVVRLLGVVSQGQPTLVIMELMTRGDLKSYLRSLRPEMENNPVLAPPSLSKMIQMAGEIADGMAYLNANKFVHRDLAARNCMVAEDFTVKIGDFGMTRDIYETDYYRKGGKGLLPVRWMSPESLKDGVFTTYSDVWSFGVVLWEIATLAEQPYQGLSNEQVLRFVMEGGLLDKPDNCPDMLFELMRMCWQYNPKMRPSFLEIISSIKEEMEPGFREVSFYYSEENKLPEPEELDLEPENMESVPLDPSASSSSLPLPDRHSGHKAENGPGPGVLVLRASFDERQPYAHMNGGRKNERALPLPQSSTC
modifications: left off: small tags and cut ends
As to B1, the “MBP Kinase Activity” value is “Strong”.

B2: INSRR (protein)
chain: YGKKRNRTLYASVNPEYFSASDMYVPDEWEVPREQISIIRELGQGSFGMVYEGLARGLEAGEESTPVALKTVNELASPRECIEFLKEASVMKAFKCHHVVRLLGVVSQGQPTLVIMELMTRGDLKSHLRSLRPEAENNPGLPQPALGEMIQMAGEIADGMAYLAANKFVHRDLAARNCMVSQDFTVKIGDFGMTRDVYETDYYRKGGKGLLPVRWMAPESLKDGIFTTHSDVWSFGVVLWEIVTLAEQPYQGLSNEQVLKFVMDGGVLEELEGCPLQLQELMSRCWQPNPRLRPSFTHILDSIQEELRPSFRLLSFYYSPECRGARGSLPTTDAEPDSSPTPRDCSPQNGGPGH
modifications: left off: a dimerising Fc or GST
Consider B2, for which the “MBP Kinase Activity” value is recorded as “Negative”.

B3: FGFR4 (protein)
chain: RGQALHGRHPRPPATVQKLSRFPLARQFSLESGSSGKSSSSLVRGVRLSSSGPALLAGLVSLDLPLDPLWEFPRDRLVLGKPLGEGCFGQVVRAEAFGMDPARPDQASTVAVKMLKDNASDKDLADLVSEMEVMKLIGRHKNIINLLGVCTQEGPLYVIVECAAKGNLREFLRARRPPGPDLSPDGPRSSEGPLSFPVLVSCAYQVARGMQYLESRKCIHRDLAARNVLVTEDNVMKIADFGLARGVHHIDYYKKTSNGRLPVKWMAPEALFDRVYTHQSDVWSFGILLWEIFTLGGSPYPGIPVEELFSLLREGHRMDRPPHCPPELYGLMRECWHAAPSQRPTFKQLVEALDKVLLAVSEEYLDLRLTFGPYSPSGGDASSTCSSSDSVFSHDPLPLGSSSFPFGSGVQT
modifications: left off: small tags and cut ends
As for B3, the “MBP Kinase Activity” value is reported as “Strong”.

B4: MERTK (protein)
chain: KRVQETKFGNAFTEEDSELVVNYIAKKSFCRRAIELTLHSLGVSEELQNKLEDVVIDRNLLILGKILGEGEFGSVMEGNLKQEDGTSLKVAVKTMKLDNSSQREIEEFLSEAACMKDFSHPNVIRLLGVCIEMSSQGIPKPMVILPFMKYGDLHTYLLYSRLETGPKHIPLQTLLKFMVDIALGMEYLSNRNFLHRDLAARNCMLRDDMTVCVADFGLSKKIYSGDYYRQGRIAKMPVKWIAIESLADRVYTSKSDVWAFGVTMWEIATRGMTPYPGVQNHEMYDYLLHGHRLKQPEDCLDELYEIMYSCWRTDPLDRPTFSVLRLQLEKLLESLPDVRNQADVIYVNTQLLESSEGLAQGSTLAPLDLNIDPDSIIASCTPRAAISVVTAEVHDSKPHEGRYILNGGSEEWEDLTSAPSAAVTAEKNSVLPGERLVRNGVSWSHSSMLPLGSSLPDELLFADDSSEGSEVLM
modifications: left off: a dimerising Fc or GST
For the molecule B4, the “MBP Kinase Activity” value was “Strong”.

B5: MET (protein)
chain: KKRKQIKDLGSELVRYDARVHTPHLDRLVSARSVSPTTEMVSNESVDYRATFPEDQFPNSSQNGSCRQVQYPLTDMSPILTSGDSDISSPLLQNTVHIDLSALNPELVQAVQHVVIGPSSLIVHFNEVIGRGHFGCVYHGTLLDNDGKKIHCAVKSLNRITDIGEVSQFLTEGIIMKDFSHPNVLSLLGICLRSEGSPLVVLPYMKHGDLRNFIRNETHNPTVKDLIGFGLQVAKGMKYLASKKFVHRDLAARNCMLDEKFTVKVADFGLARDMYDKEYYSVHNKTGAKLPVKWMALESLQTQKFTTKSDVWSFGVLLWELMTRGAPPYPDVNTFDITVYLLQGRRLLQPEYCPDPLYEVMLKCWHPKAEMRPSFSELVSRISAIFSTFIGEHYVHVNATYVNVKCVAPYPSLLSSEDNADDEVDTRPASFWETS
modifications: left off: small tags and cut ends
As to B5, the “MBP Kinase Activity” value is “Strong”.

B6: FLT1(VEGFR1) (protein)
chain: RKMKRSSSEIKTDYLSIIMDPDEVPLDEQCERLPYDASKWEFARERLKLGKSLGRGAFGKVVQASAFGIKKSPTCRTVAVKMLKEGATASEYKALMTELKILTHIGHHLNVVNLLGACTKQGGPLMVIVEYCKYGNLSNYLKSKRDLFFLNKDAALHMEPKKEKMEPGLEQGKKPRLDSVTSSESFASSGFQEDKSLSDVEEEEDSDGFYKEPITMEDLISYSFQVARGMEFLSSRKCIHRDLAARNILLSENNVVKICDFGLARDIYKNPDYVRKGDTRLPLKWMAPESIFDKIYSTKSDVWSYGVLLWEIFSLGGSPYPGVQMDEDFCSRLREGMRMRAPEYSTPEIYQIMLDCWHRDPKERPRFAELVEKLGDLLQANVQQDGKDYIPINAILTGNSGFTYSTPAFSEDFFKESISAPKFNSGSSDDVRYVNAFKFMSLERIKTFEELLPNATSMFDDYQGDSSTLLASPMLKRFTWTDSKPKASLKIDLRVTSKSKESGLSDVSRPSFCHSSCGHVSEGKRRFTYDHAELERKIACCSPPPDYNSVVLYSTPPI
modifications: left off: a dimerising Fc or GST
On to B6, for which the “MBP Kinase Activity” value is listed as “Strong”.

B7: FLT3 (protein)
chain: HKYKKQFRYESQLQMVQVTGSSDNEYFYVDFREYEYDLKWEFPRENLEFGKVLGSGAFGKVMNATAYGISKTGVSIQVAVKMLKEKADSSEREALMSELKMMTQLGSHENIVNLLGACTLSGPIYLIFEYCCYGDLLNYLRSKREKFHRTWTEIFKEHNFSFYPTFQSHPNSSMPGSREVQIHPDSDQISGLHGNSFHSEDEIEYENQKRLEEEEDLNVLTFEDLLCFAYQVAKGMEFLEFKSCVHRDLAARNVLVTHGKVVKICDFGLARDIMSDSNYVVRGNARLPVKWMAPESLFEGIYTIKSDVWSYGILLWEIFSLGVNPYPGIPVDANFYKLIQNGFKMDQPFYATEEIYIIMQSCWAFDSRKRPSFPNLTSFLGCQLADAEEAMYQNVDGRVSECPHTYQNRRPFSREMDLGLLSPQAQVEDS
modifications: left off: small tags and cut ends
For B7, the “MBP Kinase Activity” value is reported as “Strong”.

B8: KIT (protein)
chain: TYKYLQKPMYEVQWKVVEEINGNNYVYIDPTQLPYDHKWEFPRNRLSFGKTLGAGAFGKVVEATAYGLIKSDAAMTVAVKMLKPSAHLTEREALMSELKVLSYLGNHMNIVNLLGACTIGGPTLVITEYCCYGDLLNFLRRKRDSFICSKQEDHAEAALYKNLLHSKESSCSDSTNEYMDMKPGVSYVVPTKADKRRSVRIGSYIERDVTPAIMEDDELALDLEDLLSFSYQVAKGMAFLASKNCIHRDLAARNILLTHGRITKICDFGLARDIKNDSNYVVKGNARLPVKWMAPESIFNCVYTFESDVWSYGIFLWELFSLGSSPYPGMPVDSKFYKMIKEGFRMLSPEHAPAEMYDIMKTCWDADPLKRPTFKQIVQLIEKQISESTNHIYSNLANCSPNRQKPVVDHSVRINSVGSTASSSQPLLVHDDV
modifications: left off: small tags and cut ends
For the molecule B8, the “MBP Kinase Activity” value is recorded as “Negative”.
